From the nanobody polyreactivity screen of Harvey et al. (2022)

experiment: yeast display, Sf9 membrane polyspecificity reagent, FACS + sequencing; frameworks hold sequencing errors
Procedure, shortened: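 A nanobody's polyreactivity label depends on the gate it was sorted from. Yeast display cells were stained with 10% biotinylated, detergent-solubilized Sf9 membrane reagent for 1 hour at 4 °C, enriched on streptavidin microbeads and sorted by FACS. The low and high (top ~1%) gates were set on anti-HA fluorescence for expression and streptavidin fluorescence for reagent binding.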

Sequence | polyreactivity (PSR sort gate)
QVHLVESGGGLVQAGGSLRLSCAASVRIISAYAMGWYRQAPGKERELVAAINGSGGSTYYADSVKGRFTISRDNAKNTVYLQMNSLKPEDTAVYYCAAKIDYPDARYFPYRYYYWGQGTQVTVSS | high polyreactivity
QVHLVESGGGLVQAGGSLRLSCAATGLIFPRYAMGWSRQAPGKEREMVAAITRGGSTYYADSVKGRFTISRDNAKNTVYLQMYSLKPEDTAVYYCNADYSPSTWYLYYSLYYYWGQGTQVTVSS | low polyreactivity
QVHLVESGGGLVQAGGSLRLSCAATGSTFPYNTMGWYRQAPGKERELVAAISSSGGSTYYADSVKGRFTISRDNAKNSVYLQRKSLKPEENAVYYCKAQIVASYQARRYYYWGQGTQVTVSS | low polyreactivity
QVHLVESGGGLVQAGGSLRLSCAAYGRIFKNYAMGWYRQAPGKESELVAAISWSGGRTYYADSVKGRFTISRDNAKNTVYLQMNSLKPEDTAVYYCATAARRGTSSIEPFGYGSWGQGTQVTVSS | high polyreactivity
QVHLVESGGGLVQAGGSLRLSCAAYGSIFHGNAMGWYRQAPGKERELVAAISWSGDSTYYADSVKGRFTISRDNAKNTVYLHMNSLKPEDTAVYSCNAEWTRDFYEYDYWGQGTQVTVSS | low polyreactivity
QVHLVESGGGLVQAGGSLRLSCAAYGSIFRVYAMGWYRPAPGKERELVAAIDSGGSTYYADSVKGRFTISRDNAKNTVYLQMNSLKPEDTAVYYCNADRRPGGDYWGQGTQVTVSS | low polyreactivity
QVHLVESGGGLVQAGGSLRLSCAPSGSTFIRNAILWYRQAPGKDRELVAPISRSGSSTYYADSVKGRFTISRDNAKNTVYLQMNSLKPEDTAVYYCAAETDSRKARVLYDSWGQGTQVTVSS | high polyreactivity
QVHLVESGGGLVQAGGSLRLSCASYGSTLELNAMGWYRQAPGKERELVAAITSSGGRTYYADSVKGRFTISRDNAKNTVYLQMKSLKPEDTAVYYCAAEPGQQRVVDRYDYWGQGTQVTVSS | low polyreactivity
QVHLVESGGGLVQAGGSLRLSCDASGRIFKYNAMGWYRQAPGKERELVAAISSGGSTNYADSVKGRFTISRDNAKNTVYLQMNSLKPEDTAVYDCAADGTRVSSFHYLVWLCYWGQGTQVTVSS | low polyreactivity
QVHLVESGGGLVQAGGSLRLSCDASGSIIDGYGMGWYRQAPGKERELVASITWNDGSTYYADSVKGRFTISRDNAKNTVYLQMNSLKPEDTAVYYCAADQWGYEYDYWGQGTQVTVSS | low polyreactivity
QVHLVESGGGLVQAGGSLRLSCHASGIIFKTYAMGWYRQPPGKERELVAAISSGGTTYYADSVKGRFTISRDNAKNTVYLQMNSLKPEDTAVYYCAARGYRSGGGYNYWGQGTQVTVSS | high polyreactivity
QVHLVESGGGLVQAGGSLRLSCPASGRTFYRKAMGWDRQAPGKERELVAAITSGGGTTYADSVKGRFTISRDNAKNTVYLQMNSLKPEDTAVYYCAAGRVRRRVLYNYWGQGTQVTVSS | high polyreactivity
QVHLVESGGGLVQAGGSLRLSCSASGITFLTYTMGWYRQEPGKERELVASIRYSTGSTYYADSVKGRFTISRDNAKNTVYLQMNSLKPEDTAVYYCNDYSSYIKYDYWGQGTQVTVTS | high polyreactivity
QVHLVESGGGLVQAGGSLRLSCSASGITFTRYTMGWYRQARGKERELVASIRRSGSTNYADSVKGRFTISRDNAKNTVYLQMNSLKPEDTAVYYCAAVQTGRYYYWGQGTQVTVSS | high polyreactivity
QVHLVESGGGLVQAGGSLRLSCSASGRIFDNYVMGWYRQAPGKERELVAAISSGGGTYYADSVKGRFTISRDNAKNTVFLQMNSLKPEDTAVYYCAKRRVYDRSFGRYDYWGQGTQVTVSS | low polyreactivity
QVHLVESGGGLVQAGGSLRLSFAASGFTFGQNAMGWYRQAPGKEREFVATITASGSTYYADSVKGRFTISRDNAKNTVYLQMYSLKPEDTAVYYCATRYAGEYYWDYDYWGQGTQVTVSS | high polyreactivity
QVHLVESGGGLVQAGGSLRLSFAASGRIFARYALGWYRPAPGKERELVAAITSGGSTHYADSVKGRFTIARENAKNTVYLQMNSLKPEDSAVYYCAAVYRGQRYDYWGQGTQVTVSS | high polyreactivity
QVHLVESGGGLVQAGGSLRLSFAASGRIFDLYTMGWYRQAPGKERELVAAIRWSDGSTYYADSVKGRFTISRDNAKNTVYLQMNSLKPEDTAVYYCAADTRTSYYNDDYDYWGQGTQVTVSS | low polyreactivity
QVHLVESGGGLVQAGGSLRLSFAASGSTFYVNAMGWYRQAPGKERELVAAIRYSGGRTYYADSVKGRFTISRDNAKNNVYLQLNRLKPEDTAVYFCAATTYYGGLYTREFDYWGQGTQVTVSS | low polyreactivity
QVHLVESGGGLVQAGGSLRLSGAASGSTFLEYARGWYRQAPGKERELVADISSGGGTHYADSVKGRFTISRDNAKNTVYLQMNSLKPDDTAVYYCNRDISGSSGGELDYWGQGSQVTVSS | low polyreactivity
QVHLVESGGGLVQAGGSLRLSSAASGRTFRGNAMGWYRQPPGKEREFDAVISGSGGSTYYADSVKGRFTISRDNAKNTVYLQMNSLKPEDTAVYYCGDKPSRWQRYDYWGQGTQVTVSS | high polyreactivity

Sequence | polyreactivity (PSR sort gate)
QVHLVESGGGLVQAGGSLRLSSAPSGSILLINAMGWYRQAPGKERELVAAIRTGGSTYYADSVKGRFTISRDNAKNTVYLQMNSLKPEDTAVYYCNVDYDVQPGGEFDYWGQGTQVTVSS | low polyreactivity
QVHLVESGGGLVQAGGSLRLSWAASGFIFKNYAMGWYRQAPGKERELVAVISRSGGSTYYADSVKGRFTISRDNAKNTVYLQMNSLKPEDTAVYYCNADRWKSGYWRYDYWGQGTQVTVSS | low polyreactivity
QVHLVESGGGLVQAGGSLRLSWAASGSILRQYAMGWYRQAPGKERELVATITGDGSTNYADSVKGRFTISRDNAKNTVYLQMNSLKPQDTAVYYCITDLTYPNPNVEVMVYGFKLDYWGQGTQVTVSS | low polyreactivity
QVHLVESGGGLVQAGGSLRLTCAASGFIFQWYAMGWYRQAPGKERELVAAINSSGSTNYADSVKGRFTISRDNAKNSGYLQRNILKPEDTAVYYCAAHWRYGRKFDYWGQGTQVTVSS | high polyreactivity
QVHLVESGGGLVQAGGSLSLSCAASGLNFRTYAMGWYRQAPGKERELVAAISSSGGSTYYADSVKGRFTISRDNAKNTVYLQMNSLKPEDTAVYYCNVGSRRRRYLDRYEYWGQGTQVTVSS | high polyreactivity
QVHLVESGGGLVQAGRSLRLSCAASGIIFQLYAMGWYRQPPGKERELVATISSVGSTNYADSVKGRFTISRDNAKNTVYLEMTSLNPEDTAVYYCNAARYGWGYFYGLNYWGQGTQVTVSS | low polyreactivity
QVHLVESGGGLVQAGRSLRLSCAASGLTFGTNPMGWYRQAPGKERELVAAITWRGGSTSYADSVKGRFTISRDNAKNTVYLQMNSLKPEDTAVYYCAVRLRYPGNTFYDWGQGTQVTVSS | high polyreactivity
QVHLVESGGGLVQAGRSLRLSCAASGRTSAYYAMGWYRQAPGKERELDAGITRGGRTNYADSVKGRFTISRDNAKNTVYLQMNSLKPEDTAVYYCAAKYGYYWNSRTSGYWGQGTQVTVSS | high polyreactivity
QVHLVESGGGLVQEGGSLRLSFAASGSSFIWYGMGWYRQAPGKARELVATITSSGSTNYADSVKGRFTISRDNAKNTVYLQMNSLKPEDTAVFYCAKRGPLRHYSWGQGTQVTVSS | low polyreactivity
QVHLVESGGGLVQSGGSLRLSCAASGTIFEANVKGWYRQAPGKERELVATISSDGTSTYYADSVKGRFTISRDNAKYTVYLQMNSRKPEDTAVYYCNADAGAGWYPDSKYAYDYWGQGTLVTVSS | low polyreactivity
QVHLVESGGGLVQSGGSLRLSCAATGNIFGRYAKGWYRQAPGKERELVAGISRGVSTSYADSVKGPFTISRDNAKNTVYLQMYSLKPDDTAVYYCTKRPWYLSDYWGQGTEVTVSS | low polyreactivity
QVHLVESGGGVLQAGVSLRLSCAASGFTFYGNAMGWYRQAAGKERELVAANSGRGGSTYYADSVKGRFTISRDNEKYTVYLHMNSLKPEDTAVYYCDIYVSWPLYYYWGQGTQVTVSS | low polyreactivity
QVHLVESGGGVVQAGGSLRLSCAASGFTFVPYAMGWYRQAPGKETETNADSVKGRFTSSRDNAKNTVYLQMNSLKPEDTAVYYCAAGGYGPYDYWGQGTQVTVSS | low polyreactivity
QVHLVESGGGVVQAGGSRRLSCAASGSIIHDNAMGWYRQAPGKERELVADITWSGGSTYYADSVKGRFTISRDNAKITVYLQMNSLKPEETAVYDCAAGSGHWYYYDFDYWGQGTLVTVSS | high polyreactivity
QVHLVESGGRLVQAGGSLRLSCAASGFIFQWYAMGWYRQAPGKERELVAAINSSGSTNYADSVKGRFTISRDNAKNTVYLQMNSLKPEDTAVYYCAAHWRYGRKFDYWGQGTQVTVSS | high polyreactivity
QVHLVESGGRLVQAGGSLRLSCAASGSTFTINVMGWYRQAPGKERELVADISWSGGSTYYADSVKGRFTISRDNAKNTVYSQMNSLYPVYTAVSYCATDGAYWTYYSWYDYWGQGTQVTVSS | low polyreactivity
QVHLVESGGVLVQAGCSLRLSCSASGSTFDFNAMGWYRQAPGKERELVAAITSGDSTNYADSVQGRFTISRDNAKNTVYLQMNSLKPEDTAVYYCAARYYWKYITSAARRAGSDYWGQGTQVTVSS | low polyreactivity
QVHLVESRGGLVQAGGSLRLSCAASGFIFRWYAMGCYRQAPGKERELVAAISSSSGSTYYADSVKGRFTISRDNAKNTVYLQMNSLKPEDTAVYYCAAESNRRFEGEYWGQGTQVTVSS | high polyreactivity
QVHLVESVGGLVQAGGSLRLICAASGRIFRRYAMGWYIQAPGKEREFVAAISYGGGSTYYADSVKGRFTISRDNAKNTVYLQMNSLKPEDSAVYYCNADVPKSLLLYYPWGYGYWGQGTQVTVSS | low polyreactivity
QVHLVESVGGLVQAGGSLRLSCAASGRTSGANAMGWYRQAPGKERELVAAIRYSVGSTYYADSVKGRFTISRDNAKNTVYLQMISLKPEDTAVYYCAARGYPKRGGYWGQGTQVTVSS | high polyreactivity
